# Experimental data as given in the nanobody polyreactivity screen of Harvey et al. (2022).
# Assay: yeast display, Sf9 membrane polyspecificity reagent, FACS + sequencing; frameworks hold sequencing errors
# In short: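 After 36–48 hours of galactose induction, yeast (Saccharomyces cerevisiae BJ5465) displaying a synthetic nanobody library were stained at 4 °C for 1 hour with 10% biotinylated, detergent-solubilized Sf9 membrane reagent. Streptavidin microbeads enriched the stained cells before FACS sorting into low and high (top ~1%) gates on anti-HA and streptavidin fluorescence. Each clone's polyreactivity label reflects its gate of origin.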
row,Sequence,polyreactivity (PSR sort gate)
1,QVQLVESGGGLVQAGGSLRLSCAASGRTFPKYAMGWYRQATGKERELVAAISSSGGNTYYADSVKGRFTISRDKAKTTVYLQMNSLTPEDTAVYYCAARLPRGAYYYWGQGTQLTVSS,high polyreactivity
2,QVQLVESGGGLVQAGGSLRLSCAASGRTFPNVMGWYRQAPGKERELVAAISSSVGSTSYADSVKGRFTISRDNAKNTVYLQMNSLKPEDTAVYYCAARYYYRDWVGIISTYYYWGQGTQVTVSS,high polyreactivity
3,QVQLVESGGGLVQAGGSLRLSCAASGRTFPPYAMGWYRQAPGKERELVAAISRRAGTTYYADSVKGRFTISRDNAKNTVYLQMNSLKPEDTAVYYCAALTESSSYGYWGQGTQVTVSS,low polyreactivity
4,QVQLVESGGGLVQAGGSLRLSCAASGRTFPPYAMGWYRQAPGKERELVAAISSDGSTYADSVKGRFTISRDNAKNTVYLQMNSLKPEDTAVYYCAVDYTYSYRKHFGHILYSWGQGTQVTVSS,low polyreactivity
5,QVQLVESGGGLVQAGGSLRLSCAASGRTFPRYAMGWYRQAPGKERELVAAISGTGGSTYYADSVKGRFTISRDNAKNTVYLQMNSLKPEDTAVYYCAAAFRDGFTRRYGYWGQGTQVTVSS,high polyreactivity
6,QVQLVESGGGLVQAGGSLRLSCAASGRTFPRYAMGWYRQAPGKERELVAAISVRAGITYYADSVKGRFTISRDNAKNTVYLQMNSLKPEDTAVYYCAKSVRYPASDYWGQGTQVTVSS,low polyreactivity
7,QVQLVESGGGLVQAGGSLRLSCAASGRTFPSYAMGWYRQAAGKERELVAAITVSGGNTYYADSVKGRFTISRDNAKNTVYLQMNSLKPEDTAVYYCNTASYVSWYVHYYYWGQGTQVTVSS,low polyreactivity
8,QVQLVESGGGLVQAGGSLRLSCAASGRTFPSYVMGWYRQAPGKERELVAAINNGVSTNYADSVKGRYTISRDNAKNTVYLQMNSLNPEDTADYYCAAEVVAQMNYCGQGTQVTVSS,low polyreactivity
9,QVQLVESGGGLVQAGGSLRLSCAASGRTFPTNMGWYRQAPGKERELVATITGGGGSTIYADSVKGRFTISRDNAKNTVYLQMNSLKPEDTAVYYCAKTLSPEGVPYDYWGQGTQVTVSS,low polyreactivity
10,QVQLVESGGGLVQAGGSLRLSCAASGRTFPTYAMGWYRQAPGKERELVATISYNGGRTYYADSVKGRFTISRDNAKNTVYLQMNSLKPEDTAVYDCNAVVYVVGDFDYWGQGTQVTVSS,high polyreactivity
11,QVQLVESGGGLVQAGGSLRLSCAASGRTFPVNGMGWYRQAPGKERELVAAITGGGSTNYADSVKGRFTISRDNAKNTVYLQMNSLKPEDTAVYYCAAGSYSRYLYSLYFDFDYWGQGTQVTVSS,low polyreactivity
12,QVQLVESGGGLVQAGGSLRLSCAASGRTFPVYAMGWYRQAPGKEREFVAAISYRTGSTYYADSVKGRFTISRDHAKNTVYLQMNSLKPEDTAVYYCAARVSWYYTFYSWGQGTQVTVSS,high polyreactivity
13,QVQLVESGGGLVQAGGSLRLSCAASGRTFPYNAMGWYRQAPGKERELVAAITSSGSSTYYADSVKGRFTISRDNAKNTVYLQMNSLKPEDTAVYYCAADSYLIVGSSLVWQGYYYWGQGTQVTVSS,low polyreactivity
14,QVQLVESGGGLVQAGGSLRLSCAASGRTFPYNAMGWYRQAPGNERELVAGISSGGTTTYADSVKGRFTISRDNAKNTVYLQMNSLKPEVTAVYYCAATVIIFDHSRPGWDDYDYWGQGTQVTVSS,low polyreactivity
15,QVQLVESGGGLVQAGGSLRLSCAASGRTFPYNFMGWYRQAPGKERELVAGITGSGDSTFYADSVKGRFTISRDNAKNTVYLQMNSLKPEDTAVYYCAARYRTLNDGYNRNYWGQGTQVTVSS,low polyreactivity
16,QVQLVESGGGLVQAGGSLRLSCAASGRTFPYYAMGWYRQAPGKERELVAAISRRGASTYYADSVKGRFTISRDNAKNTVYLQMNSLKPEDTAVYYCNAVYRGYYSGELDYWGQGTQVTVSS,high polyreactivity
17,QVQLVESGGGLVQAGGSLRLSCAASGRTFPYYAMGWYRQAPGKERELVAVISSADSTNYADSVKGRFTISRDNAKNTVYLQMNSLKPEDTAVYYCAADAVYYGDDYWGQCTQVTVSS,low polyreactivity
18,QVQLVESGGGLVQAGGSLRLSCAASGRTFPYYAMGWYRQAPGKERELVAVITSGASTYYADSVKGRFTISRDNAKNTVYLQMNSLKPEDTAVYYCNARYSWKYDYWGQGTQVTVSS,high polyreactivity
19,QVQLVESGGGLVQAGGSLRLSCAASGRTFPYYAMGWYRQATGKERELVAAITTNDGDTYYADSVKGRFTISRDNAKNTVYLQMNSLKPEDTAVYYCSADSGSTSEYEYWGQGTQVTVSS,low polyreactivity
20,QVQLVESGGGLVQAGGSLRLSCAASGRTFQGNTMGWYRQAPGKEREFVAAMSSRGGSTYYADSVKGRFTISRDNAKNTVYLQMNRLKPEDTAVYYCDARFSHGYDYWGQGTQVTVSS,high polyreactivity
21,QVQLVESGGGLVQAGGSLRLSCAASGRTFQGNTMGWYRQAPGKERELVAAITWRGTTTYYADSVKGRFTISRDNAKNTVYVQMNSLKPEDTAVYYCAAGHALHSGDEFGYWGQGTQVTVSS,low polyreactivity

row,Sequence,polyreactivity (PSR sort gate)
1,QVQLVESGGGLVQAGGSLRLSCAASGRTFQGYAMGWYRQATGKERELVAAISRSGGRTYYADSVKGRFTISRDNAKNTVYLQMNSLKPEDTAVYYCATDAFRDYGYWGQGTQVTVSS,high polyreactivity
2,QVQLVESGGGLVQAGGSLRLSCAASGRTFQGYVMGWYRQAPRKERELVAAISRGTSTYYADSVKGRFTISRDNAKYTVYLQMNSLKPEDTAVYYCAADGERRHYWGQGTQVTVSS,low polyreactivity
3,QVQLVESGGGLVQAGGSLRLSCAASGRTFQLNAMGWYRQAPGKERELFAAISTRGGSTYYADSVKGRFTISRDNAKNTVYLQMNSLKPEDTAVYYCATDPSFSRGYKEGGGYDYWGQGTQVTVSS,high polyreactivity
4,QVQLVESGGGLVQAGGSLRLSCAASGRTFQRNAMGWYRQAPGKERELVAAISWRGGSTYYADSVKGRFTISRDNAKNTVYLQMNSLKPEDTAVYYCNTYPSQYLWYDYWGQGTQVTVSS,high polyreactivity
5,QVQLVESGGGLVQAGGSLRLSCAASGRTFQTNAMGWYRQAPGKERELVAAISWSGGRTYYADSVKGRFTISRDNAKNTVYLQMNSLKPEDTAVYYCAARQWYRYKVRFDYWGQGTLVTVSS,high polyreactivity
6,QVQLVESGGGLVQAGGSLRLSCAASGRTFQTYAMGWYRQAPGKERELVAAISKSGGGTYYADSVKGRFTISRDNAKNTVYLQMNSLKPEDTAVYYCATAGYHYRAWGGRYDYWGQGTQVTVSS,high polyreactivity
7,QVQLVESGGGLVQAGGSLRLSCAASGRTFQVNAMGWYREAPGKERELVAAISIRSGRTYYADSVKGRFTISRYNAKNTVYLQMNSLKPEDTAVYYCAAYRISVYGVGYWGQGTQVTVSS,high polyreactivity
8,QVQLVESGGGLVQAGGSLRLSCAASGRTFQVNAMGWYRQAPGKERELVAAISRRGGSTYYADSVKGRFTISRDNAKNTVYLQMNSLKPEDTAVYYCAATASTYYLWRYNYWGQGTQVSVSS,high polyreactivity
9,QVQLVESGGGLVQAGGSLRLSCAASGRTFQYNAMGWYRQAPGKERELVAAISSSGGSTYYADSVKGRFTISRDNAKNTVYLQMNSLKPEDTAVYYCNAYSQSWNFYGDGDYWGQGTQVTVSS,low polyreactivity
10,QVQLVESGGGLVQAGGSLRLSCAASGRTFQYYAMGWYRQAPGKERELVAAISWSGASTYYADSVKGRFTISRDNAKNTVYLQMNSLKPEDTAVYYCAVKAGGSRYGYWGQGTHVTVSS,high polyreactivity
11,QVQLVESGGGLVQAGGSLRLSCAASGRTFRANAMGWYRQAPGKERELVAAISKRGGNTYYADSVKGRFTISRDNAKNTVYLQMNSLKPEDTAVYYCAADFIGRDYDYWGQGTQVTVSS,high polyreactivity
12,QVQLVESGGGLVQAGGSLRLSCAASGRTFRANAMGWYRQAPGKERELVAAISQRGGNTYYADSVKGRFTISRDKAKNTVYIQMNSLKPEDTAVYYCAADITTYRRGRYEYEYWGQGTQVTVSS,high polyreactivity
13,QVQLVESGGGLVQAGGSLRLSCAASGRTFRAYVMGWYRQAPGKERELVAAITGDGGSTYYADSVKGRFTISRDNAKNTVYLQMNSLKPEDTAVYYCAAGYVTVYGYYEYWGQGTQVTVSS,high polyreactivity
14,QVQLVESGGGLVQAGGSLRLSCAASGRTFRDNPMGWYRHAPGKERELVAAISGRGSSTYYADSVKGRFTIARDNAKKTVYLQMNSLKPEDTAVYYCAALPASVRRPGWHDYWGQGTQVTVSS,high polyreactivity
15,QVQLVESGGGLVQAGGSLRLSCAASGRTFRDYAMGWYRQAPGKERELVAAINWSGGTTSYADSVKGRFTISRDNAKNTVYLQMNSLKPEDTAVYYCAVPYLYKYSRYDYWGQGTQVTVSS,high polyreactivity
16,QVQLVESGGGLVQAGGSLRLSCAASGRTFRDYVMGWYRQAPGKERELVAVISYRGSTYYADSVKGRFTISRDNAKNTVYLLMNSLKPEDTAVYYCAARFSLEGGYYWGQGTQVTVSS,low polyreactivity
17,QVQLVESGGGLVQAGGSLRLSCAASGRTFRFYAMGWNRQAPGKERELVAAINWTGGSTYYADSVKGRFTISRDNAKNTVYLQMNSLKPEDTAVYYCAKVQDYRFEYWGQGTQVTVSS,high polyreactivity
18,QVQLVESGGGLVQAGGSLRLSCAASGRTFRFYAMGWYRQAPGKERELVATIRSGASTYYADSVKGRFTISRDNAKNTVYLQMNSLKPEDTAVYYCAAGLYFPYVSVIVFRSYDYWGQGTQVTVSS,high polyreactivity
19,QVQLVESGGGLVQAGGSLRLSCAASGRTFRFYTMGWYRQAPGKERELVADISWTSGRTYYADSVKGRFTISRDNAKNTVYLQMNSLKPEDTAVYYCAAYFFSRYSLYDYWGQGTQVTVSS,high polyreactivity
20,QVQLVESGGGLVQAGGSLRLSCAASGRTFRFYVMGWYRQAPGKERELVAVIRYRGGSTYYADSVKGRFTISRDNAKNTVYLHMNSLTPEDTAVYYCNADFLLAGNEYDYWGQGTQVTVSS,high polyreactivity
